We go through eight molecules from paper PMC11025565 (Journal of molecular biology, 2021).

T1: integrin β3(P685-F727) transmembrane peptide with C687S and I693A (human, UniProt P05106 711-753, C687S | I693A)
T1 chain (looked up): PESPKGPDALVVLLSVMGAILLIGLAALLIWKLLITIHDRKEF

T2: integrin β3(P685-F727) transmembrane peptide with C687S (human, UniProt P05106 711-753, C687S)
T2 chain (looked up): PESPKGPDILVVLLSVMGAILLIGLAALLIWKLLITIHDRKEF

B1: integrin αIIb(A958-P998) transmembrane peptide with W968V (peptide, UniProt P08514 989-1029, looked up)
chain: ALEERAIPIWVVLVGVLGGLLLLTILVLAMWKVGFFKRNRP
B2: integrin αIIb(A958-P998) transmembrane peptide (peptide)
chain: not shown
B3: integrin αIIb(A958-P998) transmembrane peptide with W968V/G972A (peptide, UniProt P08514 989-1029, looked up)
chain: ALEERAIPIWVVLVAVLGGLLLLTILVLAMWKVGFFKRNRP
B4: integrin αIIb(A958-P998) transmembrane peptide with G972S (peptide)
chain: not shown
B5: integrin αIIb(A958-P998) transmembrane peptide with W968A (peptide, UniProt P08514 989-1029, looked up)
chain: ALEERAIPIWAVLVGVLGGLLLLTILVLAMWKVGFFKRNRP
B6: integrin αIIb(A958-P998) transmembrane peptide with P965A/W968V (peptide, UniProt P08514 989-1029, looked up)
chain: ALEERAIAIWVVLVGVLGGLLLLTILVLAMWKVGFFKRNRP
B7: integrin αIIb(A958-P998) transmembrane peptide with W968V/G972S (peptide, UniProt P08514 989-1029, looked up)
chain: ALEERAIPIWVVLVSVLGGLLLLTILVLAMWKVGFFKRNRP
B8: integrin αIIb(A958-P998) transmembrane peptide with G972A (peptide)
chain: not shown

One experiment addresses T1, integrin β3(P685-F727) transmembrane …. Description: ITC. A general note: Isothermal titration calorimetry measures the heat released or taken up as one component is titrated into another.
For B1, the KXY amounted to 18600 ± 800 and the dH was -16 ± 0.2 kcal/mol.

For the molecule B2, the KXY is 9500 ± 500 and the dH is -13.9 ± 0.3 kcal/mol.

In another experiment the target is T2, integrin β3(P685-F727) transmembrane …. Description: ITC.
Take B1: the KXY is 13200 ± 600 and the dH was -14.3 ± 0.2 kcal/mol.

As for B3, the KXY is 1570 ± 50 and the dH is -14.4 ± 0.2 kcal/mol.

As to B4, the KXY was 810 ± 20 and the dH was -14.8 ± 0.2 kcal/mol.

For the molecule B5, the KXY came out at 14000 ± 1000 and the dH is -14.1 ± 0.3 kcal/mol.

Regarding B6, the KXY came out at 9700 ± 300 and the dH was -14.6 ± 0.1 kcal/mol.

On to B7, for which the KXY was 1300 ± 50 and the dH was -12.5 ± 0.3 kcal/mol.

B8: the KXY is 1080 ± 30 and the dH was -14.2 ± 0.2 kcal/mol.
